Patent US20230212244A1 (IMMATICS BIOTECHNOLOGIES, published 2023)
Square brackets hold non-standard residues; d marks the D form. Ends that are not written are not given here. pS = N[C@@H](COP(=O)(O)O)C(=O)O

Biological target: T1, HLA-A*02:01 (human)
T1 construct: MHC class I monomer made peptide-receptive by UV cleavage of a UV-sensitive ligand; also called peptide-receptive MHC molecules
Assay: UV-ligand exchange ELISA (anti-β2m), peptide exchange yield grade
Excerpt: Candidate peptides for T cell based therapies according to the present invention were further tested for their MHC binding capacity (affinity). The individual peptide-MHC complexes were produced by UV-ligand exchange, where a UV-sensitive peptide is cleaved upon UV-irradiation, and exchanged with the peptide of interest as analyzed. Only peptide candidates that can effectively bind and stabilize the peptide-receptive MHC molecules prevent dissociation of the MHC complexes. To determine the yield of the exchange reaction, an ELISA was performed based on the detection of the light chain (β2m) of stabilized MHC complexes. The assay was performed as generally described in Rodenko et al. (Rodenko et al., 2006).
96 well MAXISorp plates (NUNC) were coated over night with 2ug/ml streptavidin in PBS at room temperature, washed 4× and blocked for1h at 37° C. in 2% BSA containing blocking buffer. Refolded HLA-A*02:01/MLA-001 monomers served as standards, covering the range of 15-500 ng/ml. Peptide-MHC monomers of the UV-exchange reaction were diluted 100 fold in blocking buffer. Samples were incubated for 1h at 37° C., washed four times, incubated with 2 ug/ml HRP conjugated anti-β2m for 1h at 37° C., washed again and detected with TMB solution that is stopped with […]. Absorption was measured at 450 nm. Candidate peptides that show a high exchange yield (preferably higher than 50%, most preferred higher than 75 %) are generally preferred for a generation and production of antibodies or fragments thereof, and/or T cell receptors or fragments thereof, as they show sufficient avidity to the MHC molecules and prevent dissociation of the MHC complexes.

| Binder | peptide exchange yield [%] |
| --- | --- |
| RLL[pS]PLSSA (Phosphopeptide) [peptide RLLJPLSSA (SEQ ID NO: 179)] | 50 to 75 |
| TLDAAQPRV [peptide TLDAAQPRV (SEQ ID NO: 43)] | 20 to 50 |
| VLDGVLMEL [peptide VLDGVLMEL (SEQ ID NO: 24)] | 50 to 75 |
| GLFAGLGGAGA [peptide GLFAGLGGAGA (SEQ ID NO: 37)] | 50 to 75 |
| KLYERCEVV (also called KLYERCEVV) [peptide KLYERCEW (SEQ ID NO: 47)] | 20 to 50 |
| AMAEMVLQV [peptide AMAEMVLQV (SEQ ID NO: 190)] | 50 to 75 |
| LLADEDSSYL [peptide LLADEDSSYL (SEQ ID NO: 27)] | 20 to 50 |
| SLADRLIGV [peptide SLADRLIGV (SEQ ID NO: 25)] | ≥ 75 |
| ILLDDNMQIRL [peptide ILLDDNMQIRL (SEQ ID NO: 174)] | ≥ 75 |
| RLQETEGMVAV [peptide RLQETEGMVAV (SEQ ID NO: 171)] | 20 to 50 |
| LLLDTVTMQV [peptide LLLDTVTMQV (SEQ ID NO: 172)] | 50 to 75 |
| TLQEVVTGV (also called TLQEWTGV) [peptide TLQEVVTGV (SEQ ID NO: 183)] | 50 to 75 |
| FLVDGPRVQL [peptide FLVDGPRVQL (SEQ ID NO: 188)] | 50 to 75 |
| GLDDRYSLV [peptide GLDDRYSLV (SEQ ID NO: 46)] | 50 to 75 |
| KLNTETFGV [peptide KLNTETFGV (SEQ ID NO: 32)] | 20 to 50 |
| KLGDLMVLL [peptide KLGDLMVLL (SEQ ID NO: 173)] | 50 to 75 |
| FLDASDPAL [peptide FLDASDPAL (SEQ ID NO: 48)] | 20 to 50 |
| SLAPTPVSA [peptide SLAPTPVSA (SEQ ID NO: 38)] | 20 to 50 |
| QMLDVAIRV [peptide QMLDVAIRV (SEQ ID NO: 29)] | 50 to 75 |
| NLFDLGGQYLRV [peptide NLFDLGGQYLRV (SEQ ID NO: 181)] | 50 to 75 |
| GLASKENFSNVSL [peptide GLASKENFSNVSL (SEQ ID NO: 26)] | 20 to 50 |
| TLMAEMHVV [peptide TLMAEMHW (SEQ ID NO: 50)] | 50 to 75 |
| VLIDHRWVL [peptide VLIDHRWVL (SEQ ID NO: 21)] | 50 to 75 |

| Binder | peptide exchange yield [%] |
| --- | --- |
| TLLGGKEAQALGV [peptide TLLGGKEAQALGV (SEQ ID NO: 175)] | 50 to 75 |
| KLLDLTVRI [peptide KLLDLTVRI (SEQ ID NO: 35)] | 50 to 75 |
| SLNKWIFTV [peptide SLNKWIFTV (SEQ ID NO: 182)] | ≥ 75 |
| ALAGGITMV [peptide ALAGGITMV (SEQ ID NO: 170)] | 50 to 75 |
| YLAHFIEGL [peptide YLAHFIEGL (SEQ ID NO: 169)] | 50 to 75 |
| SLLDENNVSSYL [peptide SLLDENNVSSYL (SEQ ID NO: 184)] | 50 to 75 |
| ALAAARVEL [peptide ALAAARVEL (SEQ ID NO: 17)] | 50 to 75 |
| QLFSEIHNL [peptide QLFSEIHNL (SEQ ID NO: 191)] | ≥ 75 |
| ALDSSNSMQTI [peptide ALDSSNSMQTI (SEQ ID NO: 52)] | 20 to 50 |
| FLSSLKGGLL [peptide FLSSLKGGLL (SEQ ID NO: 18)] | 50 to 75 |
| LLYGKYVSV [peptide LLYGKYVSV (SEQ ID NO: 31)] | 50 to 75 |
| ILLEKSVSV [peptide ILLEKSVSV (SEQ ID NO: 34)] | 50 to 75 |
| ALWEKNTHL [peptide ALWEKNTHL (SEQ ID NO: 33)] | 50 to 75 |
| RTLDKVLEV [peptide RTLDKVLEV (SEQ ID NO: 176)] | 20 to 50 |
| ILDDSFKLL [peptide ILDDSFKLL (SEQ ID NO: 41)] | 20 to 50 |
| GLSSAYGGL [peptide GLSSAYGGL (SEQ ID NO: 30)] | 10 to 20 |
| GLLESPSIFNFTA [peptide GLLESPSIFNFTA (SEQ ID NO: 36)] | 50 to 75 |
| VLVDQSWVL [peptide VLVDQSWVL (SEQ ID NO: 16)] | 50 to 75 |
| RLAELTVDEFL [peptide RLAELTVDEFL (SEQ ID NO: 4)] | 50 to 75 |
| ALLNGEYLLAA [peptide ALLNGEYLLAA (SEQ ID NO: 54)] | 50 to 75 |
| SVIDHIHLISV [peptide SVIDHIHLISV (SEQ ID NO: 167)] | 50 to 75 |
| YLFREPATI [peptide YLFREPATI (SEQ ID NO: 178)] | 20 to 50 |
| ALAELLHGA [peptide ALAELLHGA (SEQ ID NO: 45)] | 50 to 75 |

| Binder | peptide exchange yield [%] |
| --- | --- |
| GLIDEVMVL (also called CYP2W1-001) [peptide GLIDEVMVL (SEQ ID NO: 22)] | 50 to 75 |
| AISEVIGKITA [peptide AISEVIGKITA (SEQ ID NO: 189)] | 50 to 75 |
| YLKDGDVML [peptide YLKDGDVML (SEQ ID NO: 20)] | 50 to 75 |
| QVWEIQHTV [peptide QVWEIQHTV (SEQ ID NO: 51)] | 20 to 50 |
| ALLQGAIESV [peptide ALLQGAIESV (SEQ ID NO: 177)] | 50 to 75 |
| ALTEIQEFI [peptide ALTEIQEFI (SEQ ID NO: 28)] | ≥ 75 |
| GLLEARGILGL [peptide GLLEARGILGL (SEQ ID NO: 166)] | 50 to 75 |
| GLIRFPLMTI [peptide GLIRFPLMTI (SEQ ID NO: 168)] | 50 to 75 |
| RLYTKLLNEA [peptide RLYTKLLNEA (SEQ ID NO: 19)] | 50 to 75 |
| KMSEKILLL [peptide KMSEKILLL (SEQ ID NO: 186)] | 50 to 75 |
| FLLGSEIKL [peptide FLLGSEIKL (SEQ ID NO: 53)] | 50 to 75 |
| ALLPRYFFL [peptide ALLPRYFFL (SEQ ID NO: 2)] | 20 to 50 |
| GLHNVVYGI (also called GLHNWYGI) [peptide GLHNVVYGI (SEQ ID NO: 187)] | 50 to 75 |
| FLDANGHFV [peptide FLDANGHFV (SEQ ID NO: 23)] | 50 to 75 |
| SLESKLTSV [peptide SLESKLTSV (SEQ ID NO: 44)] | 50 to 75 |
| RLLDFPEAMVL [peptide RLLDFPEAMVL (SEQ ID NO: 165)] | ≥ 75 |
| SILDDSFKL [peptide SILDDSFKL (SEQ ID NO: 42)] | ≥ 75 |
| WLFDDGGLTL [peptide WLFDDGGLTL (SEQ ID NO: 5)] | ≥ 75 |
| RLIPDTLYSV [peptide RLIPDTLYSV (SEQ ID NO: 3)] | ≥ 75 |
| VLYTGVVRV [peptide VLYTGWRV (SEQ ID NO: 185)] | 50 to 75 |
| ALSNVIHKV [peptide ALSNVIHKV (SEQ ID NO: 40)] | 20 to 50 |
